Reference: patent EP4585616A1, “ANTIBODY CAPABLE OF SPECIFICALLY BINDING TO ROR1, […] THEREOF, AND PREPARATION METHOD THEREFOR AND USE THEREOF” (Hefei Institutes of Physical Science, Chinese Academy of …, priority 2022, dated 2024)

Experiments:
SK-BR-3 cells = experiment: In vitro anti-proliferative activity (CCK8); format: cell-based; conditions: Breast cancer, read-out: Proliferation inhibition rate IC50±SD
Procedure: (§1) The cell lines used in this example, including MCF-7, MDA-MB-231, NCI-N87, NCI-H446, HT-29, HCC827, and HCC1187 cells, were purchased from Cobioer Biosciences, Nanjing, and Yuchi Biology, Shanghai, and cultured according to the corresponding instructions. The above cells in logarithmic growth phase were inoculated into 96-well cell culture plates at a density of 250 to 1500 cells per well (depending on the growth rate of different cells) at 150 µL/well, and cultured at 37°C, 5% CO2 for about 3 to 5 hours. Then, mAb001c-vcMMAE at different concentrations were added, each drug concentration in 2 to 4 replicates, as well as the corresponding vehicle control and blank control wells. After 5 to 6 days of action (depending on the cell growth rate, to ensure a sufficient number of cell divisions), the culture medium was removed and CCK8 reaction solution (purchased from MCE, cat# HY-K0301) was added at 100 µL/well. The reaction was carried out at 37°C until the expected color depth. The cell viability (OD450 nm) of each group was measured, and the cell survival rate was calculated according to the following formula: survival rate = (OD drug-OD blank)/(OD control-OD blank) × 100%. The above data were analyzed by GraphPad Prism 5 software, and the IC50 values of the above ROR1 antibody-drug conjugates for different cell lines were calculated.
(§2) The cell lines used in this example, including breast cancer cell lines MCF-7, SK-BR-3, MDA-MB-231, and HCC1187, colorectal cancer cell lines HT-29, SK-CO-1, and COLO-678, lung cancer cell lines HCC827, and H446, ovarian cancer cell line PA-1, gastric cancer cell line NCI-N87, were purchased from Cobioer Biosciences, Nanjing, and Yuchi Biology, Shanghai, and cultured according to the corresponding instructions. The CCK8 method was used to determine the in vitro killing activity of Hu001-2-MMAE, Hu001-3-MMAE, Hu005-44-MMAE, and Hu005-46-MMAE against various cancer cells, as well as UC961-MMAE as a positive reference. The implementation method was referred to Example 13.

HT-29 cells = experiment: In vitro anti-proliferative activity (CCK8); format: cell-based; conditions: Bowel cancer, read-out: Proliferation inhibition rate IC50±SD
Procedure: as §1, §2

HCC1187 cells = experiment: In vitro anti-proliferative activity (CCK8); format: cell-based; conditions: Breast cancer, read-out: Proliferation inhibition rate IC50±SD
Procedure: as §1, §2

MDA-MB-231 cells = experiment: In vitro anti-proliferative activity (CCK8); format: cell-based; conditions: Breast cancer, read-out: Proliferation inhibition rate IC50±SD
Procedure: as §1, §2

NCI-N87 cells = experiment: In vitro anti-proliferative activity (CCK8); format: cell-based; conditions: Gastric cancer, read-out: Proliferation inhibition rate IC50±SD
Procedure: as §1, §2

MCF-7 cells = experiment: In vitro anti-proliferative activity (CCK8); format: cell-based; conditions: Breast cancer, read-out: Proliferation inhibition rate IC50±SD
Procedure: as §1, §2

NCI-H446 cells = experiment: In vitro anti-proliferative activity (CCK8); format: cell-based; conditions: Lung cancer, read-out: Proliferation inhibition rate IC50±SD
Procedure: as §1, §2

PA-1 cells = experiment: In vitro anti-proliferative activity (CCK8); format: cell-based; conditions: Ovarian cancer, read-out: Proliferation inhibition rate IC50±SD
Procedure: as §1, §2

SK-CO-1 cells = experiment: In vitro anti-proliferative activity (CCK8); format: cell-based; conditions: Bowel cancer, read-out: Proliferation inhibition rate IC50±SD
Procedure: as §1, §2

COLO-678 cells = experiment: In vitro anti-proliferative activity (CCK8); format: cell-based; conditions: Bowel cancer, read-out: Proliferation inhibition rate IC50±SD
Procedure: as §1, §2

HCC827 cells = experiment: In vitro anti-proliferative activity (CCK8); format: cell-based; conditions: Lung cancer, read-out: Proliferation inhibition rate IC50±SD
Procedure: as §1, §2

PA-1 tumors = experiment: In vivo antitumor activity, subcutaneous tumor model; set-up: species or system immunodeficient mice (NCG or Balb/c-nude); conditions: PA-1 model; for Tumor inhibition rate (%): day 28
Procedure: (§3) 200 µL of cell matrix gel suspension containing 5 × 10^6 MDA-MB-231, 1 × 10^7 HCC1187, 1 × 10^7 PA-1, or 5 × 10^6 NCI-N87 was inoculated subcutaneously on the back of immunodeficient mice (NCG or Balb/c-nude). When the tumor volume grew to 100 to 300 mm3, the mice were randomly divided into groups (n=8 to 10) according to the tumor volume and nude mouse weight. The mice were dosed at doses of 5 mg/kg and 2.5 mg/kg once a week through the tail vein for a total of 3 weeks, as well as a group with PBS set as a negative control. The tumor volume and nude mouse weight were measured and recorded 2 to 3 times a week to plot the tumor growth curve. The formula for calculating tumor volume (V) is: V=1/2×a×b2, where a and b represent the length and width of the tumor, respectively.

NCI-N87 tumors = experiment: as above; set-up: species or system immunodeficient mice (NCG or Balb/c-nude); conditions: for Tumor inhibition rate (%): day 21
Procedure: as §3

HCC1187 tumors = experiment: as above; set-up: species or system immunodeficient mice (NCG or Balb/c-nude); conditions: for Tumor inhibition rate (%): day 21
Procedure: as §3

[1] = 2.5mg/kg once a week x3, tail vein
[2] = 5mg/kg once a week x3, tail vein

B1: UC961-MMAE: UC961 coupled with vcMMAE, prepared as a positive reference, average DAR about 3.95 (conjugate)
VH: QVQLQESGPGLVKPSQTLSLTCTVSGYAFTAYNIHWVRQAPGQGLEWMGSFDPYDGGSSYNQKFKDRLTISKDTSKNQVVLTMTNMDPVDTATYYCARGWYYFDYWGHGTLVTVSS
VL: DIVMTQTPLSLPVTPGEPASISCRASKSISKYLAWYQQKPGQAPRLLIYSGSTLQSGIPPRFSGSGYGTDFTLTINNIESEDAAYYFCQQHDESPYTFGEGTKVEIK
- IC50 (SK-BR-3 cells): > 100 nM
- IC50 (HT-29 cells): 24.6 ± 1.04 nM
- IC50 (HCC1187 cells): 3 ± 1.5 nM
- IC50 (MDA-MB-231 cells): 13.5 ± 3.61 nM
- IC50 (NCI-N87 cells): 11.2 ± 2.47 nM
- IC50 (MCF-7 cells): > 100 nM
- IC50 (NCI-H446 cells): 11.6 ± 2.52 nM
- IC50 (PA-1 cells): 3.35 ± 0.12 nM
- IC50 (SK-CO-1 cells): 5.75 ± 2.46 nM
- IC50 (COLO-678 cells): 19.1 ± 0.78 nM
- IC50 (HCC827 cells): 45.3 ± 25.7 nM
- Tumor volume ± SE (mm^3) on day 28th of administration (PA-1 tumors; [1]): 1032.13±123.29 mm^3
- Tumor inhibition rate (%) (PA-1 tumors; 2.5mg/kg): 32.09%
- Tumor volume ± SE (mm^3) on day 28th of administration (PA-1 tumors; [2]): 44.67±3.04 mm^3
- Tumor inhibition rate (%) (PA-1 tumors; 5mg/kg): 97.06%
- Tumor volume ± SE (mm^3) on day 21th of administration (NCI-N87 tumors; [1]): 2010.44±266.07 mm^3
- Tumor inhibition rate (%) (NCI-N87 tumors; 2.5mg/kg): 19.87%
- Tumor volume ± SE (mm^3) on day 21th of administration (NCI-N87 tumors; [2]): 1171.18±130.32 mm^3
- Tumor inhibition rate (%) (NCI-N87 tumors; 5mg/kg): 53.32%
- Tumor volume ± SE (mm^3) on day 21th of administration (HCC1187 tumors; [1]): 2576.56±461.28 mm^3
- Tumor inhibition rate (%) (HCC1187 tumors; 2.5mg/kg): 15.18%
- Tumor volume ± SE (mm^3) on day 21th of administration (HCC1187 tumors; [2]): 407.09±69.85 mm^3
- Tumor inhibition rate (%) (HCC1187 tumors; 5mg/kg): 86.60%
